Data taken from US10919943B2, “Mutant proteins enabling agrochemical control of plant gene expression” (The Regents of the University of California, priority 2016, dated 2021).
Where a chain is given by its changes, count along the chain named. In names and notes the source's numbering stands.

B1: H245N: HAB1 mutant (protein, UniProt Q9CAJ0 23-511, looked up, variant H245N)
Protein phosphatase 2C 16: SPVEITQLKNVTDAADLLSDSENQSFCNGGTECTMEDVSELEEVGEQDLLKTLSDTRSGSSNVFDEDDVLSVVEDNSAVISEGLLVVDAGSELSLSNTAMEIDNGRVLATAIIVGESSIEQVPTAEVLIAGVNQDTNTSEVVIRLPDENSNHLVKGRSVYELDCIPLWGTVSIQGNRSEMEDAFAVSPHFLKLPIKMLMGDHEGMSPSLTHLTGHFFGVYDGNGGHKVADYCRDRLHFALAEEIERIKDELCKRNTGEGRQVQWDKVFTSCFLTVDGEIEGKIGRAVVGSSDKVLEAVASETVGSTAVVALVCSSHIVVSNCGDSRAVLFRGKEAMPLSVDHKPDREDEYARIENAGGKVIQWQGARVFGVLAMSRSIGDRYLKPYVIPEPEVTFMPRSREDECLILASDGLWDVMNNQEVCEIARRRILMWHKKNGAPPLAERGKGIDPACQAAADYLSMLALQKGSKDNISIIVIDLKAQRKFKTRT
B2: G246S: HAB1 mutant (protein, UniProt Q9CAJ0 23-511, looked up, variant G246S)
Protein phosphatase 2C 16: B1 Protein phosphatase 2C 16 with N223H, G224S
B3: G246C: HAB1 mutant (protein, UniProt Q9CAJ0 23-511, looked up, variant G246C)
Protein phosphatase 2C 16: B1 Protein phosphatase 2C 16 with N223H, G224C
B4: H245Y: HAB1 mutant (protein, UniProt Q9CAJ0 23-511, looked up, variant H245Y)
Protein phosphatase 2C 16: B1 Protein phosphatase 2C 16 with N223Y
B5: G246L: HAB1 mutant (protein, UniProt Q9CAJ0 23-511, looked up, variant G246L)
Protein phosphatase 2C 16: B1 Protein phosphatase 2C 16 with N223H, G224L
B6: G246M: HAB1 mutant (protein, UniProt Q9CAJ0 23-511, looked up, variant G246M)
Protein phosphatase 2C 16: B1 Protein phosphatase 2C 16 with N223H, G224M
B7: G247Q: HAB1 mutant (protein, UniProt Q9CAJ0 23-511, looked up, variant G247Q)
Protein phosphatase 2C 16: B1 Protein phosphatase 2C 16 with N223H, G225Q
B8: H245G: HAB1 mutant (protein, UniProt Q9CAJ0 23-511, looked up, variant H245G)
Protein phosphatase 2C 16: B1 Protein phosphatase 2C 16 with N223G
B9: G246T: HAB1 mutant (protein, UniProt Q9CAJ0 23-511, looked up, variant G246T)
Protein phosphatase 2C 16: B1 Protein phosphatase 2C 16 with N223H, G224T
B10: G246R: HAB1 mutant (protein, UniProt Q9CAJ0 23-511, looked up, variant G246R)
Protein phosphatase 2C 16: B1 Protein phosphatase 2C 16 with N223H, G224R
B11: H245T: HAB1 mutant (protein, UniProt Q9CAJ0 23-511, looked up, variant H245T)
Protein phosphatase 2C 16: B1 Protein phosphatase 2C 16 with N223T
B12: G246H: HAB1 mutant (protein, UniProt Q9CAJ0 23-511, looked up, variant G246H)
Protein phosphatase 2C 16: B1 Protein phosphatase 2C 16 with N223H, G224H
B13: H245C: HAB1 mutant (protein, UniProt Q9CAJ0 23-511, looked up, variant H245C)
Protein phosphatase 2C 16: B1 Protein phosphatase 2C 16 with N223C
B14: G246Y: HAB1 mutant (protein, UniProt Q9CAJ0 23-511, looked up, variant G246Y)
Protein phosphatase 2C 16: B1 Protein phosphatase 2C 16 with N223H, G224Y
B15: G247M: HAB1 mutant (protein, UniProt Q9CAJ0 23-511, looked up, variant G247M)
Protein phosphatase 2C 16: B1 Protein phosphatase 2C 16 with N223H, G225M
B16: G246A: HAB1 mutant (protein, UniProt Q9CAJ0 23-511, looked up, variant G246A)
Protein phosphatase 2C 16: B1 Protein phosphatase 2C 16 with N223H, G224A
B17: H245R: HAB1 mutant (protein, UniProt Q9CAJ0 23-511, looked up, variant H245R)
Protein phosphatase 2C 16: B1 Protein phosphatase 2C 16 with N223R
B18: G246N: HAB1 mutant (protein, UniProt Q9CAJ0 23-511, looked up, variant G246N)
Protein phosphatase 2C 16: B1 Protein phosphatase 2C 16 with N223H, G224N
B19: G246F: HAB1 mutant (protein, UniProt Q9CAJ0 23-511, looked up, variant G246F)
Protein phosphatase 2C 16: B1 Protein phosphatase 2C 16 with N223H, G224F
B20: G246W: HAB1 mutant (protein, UniProt Q9CAJ0 23-511, looked up, variant G246W)
Protein phosphatase 2C 16: B1 Protein phosphatase 2C 16 with N223H, G224W
B21: H245S: HAB1 mutant (protein, UniProt Q9CAJ0 23-511, looked up, variant H245S)
Protein phosphatase 2C 16: B1 Protein phosphatase 2C 16 with N223S
B22: G246D: HAB1 mutant (protein, UniProt Q9CAJ0 23-511, looked up, variant G246D)
Protein phosphatase 2C 16: B1 Protein phosphatase 2C 16 with N223H, G224D
B23: H245Q: HAB1 mutant (protein, UniProt Q9CAJ0 23-511, looked up, variant H245Q)
Protein phosphatase 2C 16: B1 Protein phosphatase 2C 16 with N223Q
B24: G246V: HAB1 mutant (protein, UniProt Q9CAJ0 23-511, looked up, variant G246V)
Protein phosphatase 2C 16: B1 Protein phosphatase 2C 16 with N223H, G224V
B25: G246E: HAB1 mutant (protein, UniProt Q9CAJ0 23-511, looked up, variant G246E)
Protein phosphatase 2C 16: B1 Protein phosphatase 2C 16 with N223H, G224E
B26: H245E: HAB1 mutant (protein, UniProt Q9CAJ0 23-511, looked up, variant H245E)
Protein phosphatase 2C 16: B1 Protein phosphatase 2C 16 with N223E
B27: H245D: HAB1 mutant (protein, UniProt Q9CAJ0 23-511, looked up, variant H245D)
Protein phosphatase 2C 16: B1 Protein phosphatase 2C 16 with N223D
B28: H245F: HAB1 mutant (protein, UniProt Q9CAJ0 23-511, looked up, variant H245F)
Protein phosphatase 2C 16: B1 Protein phosphatase 2C 16 with N223F
B29: H245W: HAB1 mutant (protein, UniProt Q9CAJ0 23-511, looked up, variant H245W)
Protein phosphatase 2C 16: B1 Protein phosphatase 2C 16 with N223W
B30: G246P: HAB1 mutant (protein, UniProt Q9CAJ0 23-511, looked up, variant G246P)
Protein phosphatase 2C 16: B1 Protein phosphatase 2C 16 with N223H, G224P
B31: G247A: HAB1 mutant (protein, UniProt Q9CAJ0 23-511, looked up, variant G247A)
Protein phosphatase 2C 16: B1 Protein phosphatase 2C 16 with N223H, G225A
B32: G247P: HAB1 mutant (protein, UniProt Q9CAJ0 23-511, looked up, variant G247P)
Protein phosphatase 2C 16: B1 Protein phosphatase 2C 16 with N223H, G225P
B33: G247R: HAB1 mutant (protein, UniProt Q9CAJ0 23-511, looked up, variant G247R)
Protein phosphatase 2C 16: B1 Protein phosphatase 2C 16 with N223H, G225R
B34: H245P: HAB1 mutant (protein, UniProt Q9CAJ0 23-511, looked up, variant H245P)
Protein phosphatase 2C 16: B1 Protein phosphatase 2C 16 with N223P
B35: G246I: HAB1 mutant (protein, UniProt Q9CAJ0 23-511, looked up, variant G246I)
Protein phosphatase 2C 16: B1 Protein phosphatase 2C 16 with N223H, G224I
B36: G246Q: HAB1 mutant (protein, UniProt Q9CAJ0 23-511, looked up, variant G246Q)
Protein phosphatase 2C 16: B1 Protein phosphatase 2C 16 with N223H, G224Q
B37: H245I: HAB1 mutant (protein, UniProt Q9CAJ0 23-511, looked up, variant H245I)
Protein phosphatase 2C 16: B1 Protein phosphatase 2C 16 with N223I
B38: G246K: HAB1 mutant (protein, UniProt Q9CAJ0 23-511, looked up, variant G246K)
Protein phosphatase 2C 16: B1 Protein phosphatase 2C 16 with N223H, G224K
B39: H245V: HAB1 mutant (protein, UniProt Q9CAJ0 23-511, looked up, variant H245V)
Protein phosphatase 2C 16: B1 Protein phosphatase 2C 16 with N223V
B40: H245K: HAB1 mutant (protein, UniProt Q9CAJ0 23-511, looked up, variant H245K)
Protein phosphatase 2C 16: B1 Protein phosphatase 2C 16 with N223K

Target: T1, PYR1 (Arabidopsis thaliana, UniProt O49686)
T1 construct: expressed in transfected cells; host or cells: S. cerevisiae strain Y190
T1 sequence (O49686 1-191): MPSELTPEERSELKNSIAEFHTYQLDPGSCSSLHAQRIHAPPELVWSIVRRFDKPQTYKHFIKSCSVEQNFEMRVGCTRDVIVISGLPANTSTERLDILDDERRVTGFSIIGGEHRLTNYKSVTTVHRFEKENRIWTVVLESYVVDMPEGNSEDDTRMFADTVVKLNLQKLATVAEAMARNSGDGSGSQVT
Test: Yeast two hybrid of pACT-HAB1 site saturation mutants with pBD-PYR1 on 10 μM ABA, β-galactosidase staining
Type: cell-based
Design: key: x: Mutations in HAB1 that disrupt HAB1 interaction with PYR1
Conditions: S. cerevisiae Y190, 10 μM ABA; dead = lack of detectable staining in comparison to wild type control
In short: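 HAB1 (lacking three N-terminal residues) site-saturation mutants in pACT were co-transformed with pBD-PYR1 into S. cerevisiae Y190 and spotted on SD (-Leu,-Trp) with 10 μM ABA. After 2 days at 30 °C, chloroform-lysed colonies were stained for β-galactosidase; "dead" means no detectable staining versus wild-type pair.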

Row | Molecule | Mutations in HAB1 that disrupt HAB1 interaction with PYR1
1 | B1 | x
2 | B2 | x
3 | B3 | x
4 | B4 | x
5 | B5 | x
6 | B6 | x
7 | B7 | x
8 | B8 | x
9 | B9 | x
10 | B10 | x
11 | B11 | x
12 | B12 | x
13 | B13 | x
14 | B14 | x
15 | B15 | x
16 | B16 | x
17 | B17 | x
18 | B18 | x
19 | B19 | x
20 | B20 | x

Row | Molecule | Mutations in HAB1 that disrupt HAB1 interaction with PYR1
21 | B21 | x
22 | B22 | x
23 | B23 | x
24 | B24 | x
25 | B25 | x
26 | B26 | x
27 | B27 | x
28 | B28 | x
29 | B29 | x
30 | B30 | x
31 | B31 | x
32 | B32 | x
33 | B33 | x
34 | B34 | x
35 | B35 | x
36 | B36 | x
37 | B37 | x
38 | B38 | x
39 | B39 | x
40 | B40 | x
